Reference: patent US20200024330A1

Key:
[1] = molecular target: HIV-1 JRFL envelope glycoprotein (Env) on pseudovirus (HIV-1); assay: cell-based or functional assay
[2] = molecular target: HIV-1 92RW020 Env (pseudovirus) (HIV-1); assay: cell-based or functional assay
[3] = molecular target: HIV-1 MGRM-D-001 Env (pseudovirus) (HIV-1); assay: cell-based or functional assay
[4] = molecular target: HIV-1 MGRM-AG-005 envelope glycoprotein (Env) on pseudovirus (HIV-1); assay: cell-based or functional assay
[5] = molecular target: HIV-1 JRFL Env (pseudovirus) (HIV-1); assay: cell-based or functional assay
[6] = molecular target: HIV-1 APV17 envelope glycoprotein (Env) on pseudovirus (HIV-1); assay: cell-based or functional assay
[7] = molecular target: WT JR-FL gp120 (HIV-1 (isolate JR-FL)); assay: ELISA on coated gp120; EC50 by nonlinear regression
[8] = molecular target: JR-FL gp120 ΔV1/ΔV2 (HIV-1 (isolate JR-FL)); assay: as above
[9] = molecular target: HIV-1 JR-CSF Env P299A (HIV-1 JR-CSF) (UniProt P20871); assay: cell-based or functional assay
[10] = molecular target: HIV-1 JR-CSF Env N241A (HIV-1 JR-CSF) (UniProt P20871); assay: cell-based or functional assay
[11] = molecular target: HIV-1 Env of isolate MGRM-A-005 (HIV-1); assay: cell-based or functional assay
[12] = molecular target: HIV-1 JR-CSF Env W395A (HIV-1 (isolate JR-CSF)) (UniProt P20871); assay: cell-based or functional assay
[13] = molecular target: HIV-1 JR-CSF Env N295A (HIV-1 JR-CSF) (UniProt P20871); assay: cell-based or functional assay
[14] = molecular target: HIV-1 JR-CSF Env S334A (HIV-1 isolate JR-CSF) (UniProt P20871); assay: cell-based or functional assay
[15] = molecular target: HIV-1 Env of isolate MGRM-A-001 (HIV-1); assay: cell-based or functional assay
[16] = molecular target: HIV-1 JR-CSF Env S199A (HIV-1 JR-CSF) (UniProt P20871); assay: cell-based or functional assay
[17] = molecular target: HIV-1 JR-CSF Env L416A (HIV-1 (isolate JR-CSF)) (UniProt P20871); assay: cell-based or functional assay
[18] = molecular target: HIV-1 JR-CSF Env N386A (HIV-1 isolate JR-CSF) (UniProt P20871); assay: cell-based or functional assay
[19] = molecular target: HIV-1 MGRM-C-027 envelope glycoprotein (Env) (HIV-1); assay: cell-based or functional assay
[20] = molecular target: HIV-1 JR-CSF Env N262A (HIV-1 JR-CSF) (UniProt P20871); assay: cell-based or functional assay
[21] = molecular target: HIV-1 JRCSF envelope glycoprotein (Env) (HIV-1) (UniProt P20871); assay: cell-based or functional assay
[22] = molecular target: HIV-1 Env of isolate MGRM-A-013 (HIV-1); assay: cell-based or functional assay
[23] = molecular target: HIV-1 Env of isolate MGRM-A-014 (HIV-1); assay: cell-based or functional assay
[24] = molecular target: HIV-1 92BR020 envelope glycoprotein (Env) (HIV-1); assay: cell-based or functional assay
[25] = molecular target: HIV-1 Env of isolate MGRM-A-008 (HIV-1); assay: cell-based or functional assay
[26] = molecular target: HIV-1 Env of isolate MGRM-A-003 (HIV-1); assay: cell-based or functional assay
[27] = molecular target: HIV-1 Env of isolate 92BR020 (HIV-1); assay: cell-based or functional assay
[28] = molecular target: HIV-1 envelope glycoprotein (Env) of isolate MGRM-C-015, on pseudovirus (HIV-1); assay: cell-based or functional assay
[29] = molecular target: HIV-1 APV6 Env (on pseudovirus) (HIV-1); assay: cell-based or functional assay
[30] = molecular target: HIV-1 envelope glycoprotein (Env) of isolate MGRM-C-026, on pseudovirus (HIV-1); assay: cell-based or functional assay
[31] = molecular target: HIV-1 envelope glycoprotein (Env) of isolate MGRM-C-020, on pseudovirus (HIV-1); assay: cell-based or functional assay
[32] = molecular target: HIV-1 92TH021 Env (on pseudovirus) (HIV-1); assay: cell-based or functional assay
[33] = molecular target: HIV-1 Env of isolate MGRM-C-024 (subtype C), on pseudovirus (HIV-1); assay: cell-based or functional assay
[34] = molecular target: HIV-1 Env of isolate MGRM-D-028 (HIV-1); assay: cell-based or functional assay
[35] = molecular target: HIV-1 Env of isolate SC422661.8 (subtype B) (HIV-1); assay: cell-based or functional assay
[36] = molecular target: HIV-1 IAVI-C22 envelope glycoprotein (Env) on pseudovirus (HIV-1); assay: cell-based or functional assay

Substance 5141_B17 (PGT-126) (antibody) has an IC50 (ug/ml), neutralizing activity [1] of 0.014 µg/mL, an IC50 [2] of 0.0046 µg/mL and an IC80 [2] of 0.0168 µg/mL. For the same substance, the IC90 [2] was 0.0359 µg/mL, the IC95 [2] was 0.0728 µg/mL and the IC50 [3] was 0.0639 µg/mL. For the same substance, the IC80 [3] was 0.333 µg/mL, the IC90 [3] was 0.832 µg/mL and the IC95 [3] was 1.8 µg/mL. For the same substance, the IC50 (ug/ml), neutralizing activity [4] was 1.35 µg/mL, the IC50 [5] was 0.014 µg/mL and the IC80 [5] was 0.0454 µg/mL. It also gave an IC90 [5] of 0.09 µg/mL, an IC95 [5] of 0.169 µg/mL and an IC50 (ug/ml), neutralizing activity [6] of 0.501 µg/mL.

5147_N06 (PGT-130) (antibody) gave an IC50 (ug/ml), neutralizing activity [1] of 0.0346 µg/mL, an IC50 (ug/ml), neutralizing activity [4] of 0.947 µg/mL and an IC50 (ug/ml), neutralizing activity [6] greater than 10 µg/mL.

PGT-121 (antibody) was tested, and the EC50 [7] was 0.2 µg/mL, the EC50 [8] was 0.2 µg/mL and the Fold IC50 increase relative to wild-type [9] was 0.2 fold. For the same substance, the Fold IC50 increase relative to wild-type [10] was 0.5 fold, the IC50 (µg/mL), pseudovirus neutralization [11] was greater than 50 µg/mL and the Fold IC50 increase relative to wild-type [12] was 0.5 fold. It also gave a Fold IC50 increase relative to wild-type [13] of 0.6 fold, a Fold IC50 increase relative to wild-type [14] greater than 50 fold and an IC50 (µg/mL), pseudovirus neutralization [15] greater than 50 µg/mL. It also gave a Fold IC50 increase relative to wild-type [16] of 0.8 fold, a Fold IC50 increase relative to wild-type [17] of 0.6 fold and a Fold IC50 increase relative to wild-type [18] of 1.3 fold. The IC50 neutralization [19] was 0.0094 µg/mL, the Fold IC50 increase relative to wild-type [20] was 1.1 fold and the IC50 neutralization [21] was 0.0343 µg/mL. The IC50 (µg/mL), pseudovirus neutralization [22] was 0.387 µg/mL, the IC50 (µg/mL), pseudovirus neutralization [23] was 0.003 µg/mL and the IC50 neutralization [24] was 0.0177 µg/mL. It also gave an IC50 (µg/mL), pseudovirus neutralization [25] greater than 50 µg/mL, an IC50 (µg/mL), pseudovirus neutralization [26] of 0.435 µg/mL and a Primary Neutralization Index (B cell culture well 4838 L06) [27] of 4.9. The Primary Neutralization Index (B cell culture well 4873 E03) [27] was 3.6.

In the case of PGT-122 (antibody), the EC50 [7] is reported as 0.3 µg/mL, the EC50 [8] is reported as 0.3 µg/mL and the Fold IC50 increase relative to wild-type [9] is reported as 0.5 fold. For the same substance, the Fold IC50 increase relative to wild-type [10] was 1.4 fold, the IC50 (µg/mL), pseudovirus neutralization [11] was greater than 50 µg/mL and the Fold IC50 increase relative to wild-type [12] was 0.4 fold. For the same substance, the Fold IC50 increase relative to wild-type [13] was 0.7 fold, the Fold IC50 increase relative to wild-type [14] was greater than 50 fold and the IC50 (µg/mL), pseudovirus neutralization [15] was greater than 50 µg/mL. For the same substance, the Fold IC50 increase relative to wild-type [16] was 1 fold, the Fold IC50 increase relative to wild-type [17] was 1 fold and the Fold IC50 increase relative to wild-type [18] was 1.2 fold. For the same substance, the IC50 neutralization [19] was 0.0388 µg/mL, the Fold IC50 increase relative to wild-type [20] was 1.1 fold and the IC50 neutralization [21] was 0.0727 µg/mL. The IC50 (µg/mL), pseudovirus neutralization [22] was 2.47 µg/mL, the IC50 (µg/mL), pseudovirus neutralization [23] was 0.007 µg/mL and the IC50 neutralization [24] was 0.0337 µg/mL. It also gave an IC50 (µg/mL), pseudovirus neutralization [25] greater than 50 µg/mL and an IC50 (µg/mL), pseudovirus neutralization [26] of 3.79 µg/mL.

In the case of PGT-141 (4964_G22; 4993_K13) (antibody), the IC50, pseudovirus neutralization [28] is reported as 0.033 µg/mL, the IC50 (ug/ml), pseudovirus neutralization [29] is reported as 5.08 µg/mL and the IC50, pseudovirus neutralization [30] is reported as greater than 50 µg/mL. It also gave an IC50, pseudovirus neutralization [31] of 1.34 µg/mL and an IC50 (ug/ml), pseudovirus neutralization [32] of 0.0019 µg/mL.

Work on PGT-142 (4995_E20) (antibody) yielded an IC50, pseudovirus neutralization [28] of 0.038 µg/mL, an IC50 (ug/ml), pseudovirus neutralization [29] of 5.42 µg/mL and an IC50, pseudovirus neutralization [30] greater than 50 µg/mL. It also gave an IC50, pseudovirus neutralization [31] of 0.446 µg/mL and an IC50 (ug/ml), pseudovirus neutralization [32] of 0.0022 µg/mL.

PGT-143 (4980_N08) (antibody) gave an IC50, pseudovirus neutralization [28] of 0.085 µg/mL, an IC50 (ug/ml), pseudovirus neutralization [29] of 4.43 µg/mL and an IC50, pseudovirus neutralization [30] greater than 50 µg/mL. The IC50, pseudovirus neutralization [31] was 0.797 µg/mL and the IC50 (ug/ml), pseudovirus neutralization [32] was 0.0028 µg/mL.

In the case of PGT-144 (4970_K22) (antibody), the IC50, pseudovirus neutralization [28] is reported as 0.236 µg/mL, the IC50 (ug/ml), pseudovirus neutralization [29] is reported as greater than 10 µg/mL and the IC50, pseudovirus neutralization [30] is reported as greater than 50 µg/mL. For the same substance, the IC50, pseudovirus neutralization [31] was 1.29 µg/mL and the IC50 (ug/ml), pseudovirus neutralization [32] was 0.0934 µg/mL.

Substance PGV04 (antibody) has an IC50 (µg/mL), pseudovirus neutralization [33] greater than 50 µg/mL, an IC50 [11] of 0.134 µg/mL and an IC50 [15] of 6.78 µg/mL. For the same substance, the IC50 (µg/mL), pseudovirus neutralization [34] was 1.01 µg/mL, the IC50 (µg/mL), pseudovirus neutralization [22] was 0.086 µg/mL and the IC50 (µg/mL), pseudovirus neutralization [23] was 0.172 µg/mL. For the same substance, the IC50 (µg/mL), pseudovirus neutralization [35] was 0.11 µg/mL, the IC50 [25] was 0.555 µg/mL and the IC50 [26] was 0.128 µg/mL.

For VRC01 (antibody), the IC50, pseudovirus neutralization [28] was 1.57 µg/mL, the IC50, pseudovirus neutralization [30] was 0.707 µg/mL and the IC50, pseudovirus neutralization [31] was 0.396 µg/mL. It also gave an IC50, pseudovirus neutralization [34] of 0.377 µg/mL and an IC50 [27] of 0.29 µg/mL.

In the case of b12 (antibody), the IC90 (pseudovirus neutralization) [36] is reported as 29.6 µg/mL.
